Patent US20210301025A1 (published 2021)
Substitutions are numbered along the chain they refer to. Names may count otherwise.

B1: P54AR4-83v2 A3C, NEM conjugate (designed binder, not shown: small tags and cut ends)
chain: LPCPKNLVVSEVTEDSARLSWDDPWAFYESFLIQYQESEKVGEAIVLTVPGSERSYDLTGLKPGTEYTVSIYGVHNVYKDTNMRGLPLSAIFTT
modifications: N-ethyl maleimide (NEM) on Cys 3
B2: P54AR4-83v2 F27C, NEM conjugate (designed binder, not shown: small tags and cut ends)
chain: B1 chain with C3A, F27C
modifications: N-ethyl maleimide (NEM) on Cys 27
B3: P54AR4-83v2 L32C, NEM conjugate (designed binder, not shown: small tags and cut ends)
chain: B1 chain with C3A, L32C
modifications: N-ethyl maleimide (NEM) on Cys 32
B4: P54AR4-83v2 K5C, NEM conjugate (designed binder, not shown: small tags and cut ends)
chain: B1 chain with C3A, K5C
modifications: N-ethyl maleimide (NEM) on Cys 5
notes: also called KSC
B5: P54AR4-83v2 D80C, NEM conjugate (designed binder, not shown: small tags and cut ends)
chain: B1 chain with C3A, D80C
modifications: N-ethyl maleimide (NEM) on Cys 80
B6: P54AR4-83v2 E14C, NEM conjugate (designed binder, not shown: small tags and cut ends)
chain: B1 chain with C3A, E14C
modifications: N-ethyl maleimide (NEM) on Cys 14
B7: P54AR4-83v2 H75C, NEM conjugate (designed binder, not shown: small tags and cut ends)
chain: B1 chain with C3A, H75C
modifications: N-ethyl maleimide (NEM) on Cys 75
B8: P54AR4-83v2 G64C, NEM conjugate (designed binder, not shown: small tags and cut ends)
chain: B1 chain with C3A, G64C
modifications: N-ethyl maleimide (NEM) on Cys 64
B9: P54AR4-83v2 P4C, NEM conjugate (designed binder, not shown: small tags and cut ends)
chain: B1 chain with C3A, P4C
modifications: N-ethyl maleimide (NEM) on Cys 4
B10: P54AR4-83v2 I45C, NEM conjugate (designed binder, not shown: small tags and cut ends)
chain: B1 chain with C3A, I45C
modifications: N-ethyl maleimide (NEM) on Cys 45
B11: P54AR4-83v2 L88C, NEM conjugate (designed binder, not shown: small tags and cut ends)
chain: B1 chain with C3A, L88C
modifications: N-ethyl maleimide (NEM) on Cys 88
B12: P54AR4-83v2 A26C, NEM conjugate (designed binder, not shown: small tags and cut ends)
chain: B1 chain with C3A, A26C
modifications: N-ethyl maleimide (NEM) on Cys 26
B13: P54AR4-83v2 G51C, NEM conjugate (designed binder, not shown: small tags and cut ends)
chain: B1 chain with C3A, G51C
modifications: N-ethyl maleimide (NEM) on Cys 51
B14: P54AR4-83v2 N6C, NEM conjugate (designed binder, not shown: small tags and cut ends)
chain: B1 chain with C3A, N6C
modifications: N-ethyl maleimide (NEM) on Cys 6
B15: P54AR4-83v2 G73C, NEM conjugate (designed binder, not shown: small tags and cut ends)
chain: B1 chain with C3A, G73C
modifications: N-ethyl maleimide (NEM) on Cys 73
B16: P54AR4-83v2 L7C, NEM conjugate (designed binder, not shown: small tags and cut ends)
chain: B1 chain with C3A, L7C
modifications: N-ethyl maleimide (NEM) on Cys 7
B17: P54AR4-83v2 G42C, NEM conjugate (designed binder, not shown: small tags and cut ends)
chain: B1 chain with C3A, G42C
modifications: N-ethyl maleimide (NEM) on Cys 42
B18: P54AR4-83v2 I91C, NEM conjugate (designed binder, not shown: small tags and cut ends)
chain: B1 chain with C3A, I91C
modifications: N-ethyl maleimide (NEM) on Cys 91
B19: P54AR4-83v2 A90C, NEM conjugate (designed binder, not shown: small tags and cut ends)
chain: B1 chain with C3A, A90C
modifications: N-ethyl maleimide (NEM) on Cys 90
B20: P54AR4-83v2 E11C, NEM conjugate (designed binder, not shown: small tags and cut ends)
chain: B1 chain with C3A, E11C
modifications: N-ethyl maleimide (NEM) on Cys 11
B21: P54AR4-83v2 K62C, NEM conjugate (designed binder, not shown: small tags and cut ends)
chain: B1 chain with C3A, K62C
modifications: N-ethyl maleimide (NEM) on Cys 62
B22: P54AR4-83v2 M83C, NEM conjugate (designed binder, not shown: small tags and cut ends)
chain: B1 chain with C3A, M83C
modifications: N-ethyl maleimide (NEM) on Cys 83
B23: P54AR4-83v2 D15C, NEM conjugate (designed binder, not shown: small tags and cut ends)
chain: B1 chain with C3A, D15C
modifications: N-ethyl maleimide (NEM) on Cys 15
B24: P54AR4-83v2 G85C, NEM conjugate (designed binder, not shown: small tags and cut ends)
chain: B1 chain with C3A, G85C
modifications: N-ethyl maleimide (NEM) on Cys 85
B25: P54AR4-83v2 N82C, NEM conjugate (designed binder, not shown: small tags and cut ends)
chain: B1 chain with C3A, N82C
modifications: N-ethyl maleimide (NEM) on Cys 82
B26: P54AR4-83v2 K79C, NEM conjugate (designed binder, not shown: small tags and cut ends)
chain: B1 chain with C3A, K79C
modifications: N-ethyl maleimide (NEM) on Cys 79
B27: P54AR4-83v2 E53C, NEM conjugate (designed binder, not shown: small tags and cut ends)
chain: B1 chain with C3A, E53C
modifications: N-ethyl maleimide (NEM) on Cys 53
B28: P54AR4-83v2 K40C, NEM conjugate (designed binder, not shown: small tags and cut ends)
chain: B1 chain with C3A, K40C
modifications: N-ethyl maleimide (NEM) on Cys 40
B29: P54AR4-83v2 P2C, NEM conjugate (designed binder, not shown: small tags and cut ends)
chain: B1 chain with P2C, C3A
modifications: N-ethyl maleimide (NEM) on Cys 2
B30: P54AR4-83v2 D23C, NEM conjugate (designed binder, not shown: small tags and cut ends)
chain: B1 chain with C3A, D23C
modifications: N-ethyl maleimide (NEM) on Cys 23
B31: P54AR4-83v2 F31C, NEM conjugate (designed binder, not shown: small tags and cut ends)
chain: B1 chain with C3A, F31C
modifications: N-ethyl maleimide (NEM) on Cys 31
B32: P54AR4-83v2 D22C, NEM conjugate (designed binder, not shown: small tags and cut ends)
chain: B1 chain with C3A, D22C
modifications: N-ethyl maleimide (NEM) on Cys 22
B33: P54AR4-83v2 L47C, NEM conjugate (designed binder, not shown: small tags and cut ends)
chain: B1 chain with C3A, L47C
modifications: N-ethyl maleimide (NEM) on Cys 47
B34: P54AR4-83v2 G60C, NEM conjugate (designed binder, not shown: small tags and cut ends)
chain: B1 chain with C3A, G60C
modifications: N-ethyl maleimide (NEM) on Cys 60
B35: P54AR4-83v2 E29C, NEM conjugate (designed binder, not shown: small tags and cut ends)
chain: B1 chain with C3A, E29C
modifications: N-ethyl maleimide (NEM) on Cys 29
B36: P54AR4-83v2 N76C, NEM conjugate (designed binder, not shown: small tags and cut ends)
chain: B1 chain with C3A, N76C
modifications: N-ethyl maleimide (NEM) on Cys 76
B37: P54AR4-83v2 E39C, NEM conjugate (designed binder, not shown: small tags and cut ends)
chain: B1 chain with C3A, E39C
modifications: N-ethyl maleimide (NEM) on Cys 39
B38: P54AR4-83v2 L86C, NEM conjugate (designed binder, not shown: small tags and cut ends)
chain: B1 chain with C3A, L86C
modifications: N-ethyl maleimide (NEM) on Cys 86
B39: P54AR4-83v2 E43C, NEM conjugate (designed binder, not shown: small tags and cut ends)
chain: B1 chain with C3A, E43C
modifications: N-ethyl maleimide (NEM) on Cys 43

What was measured:
[1] = target: T1, EGFR (form used in the assay not stated) (human, UniProt P00533 25-645, limits assumed); assay: ELISA, NEM conjugate, 100 nM
[2] = target: T1, EGFR (form used in the assay not stated); assay: ELISA, NEM conjugate, 500 nM
[3] = target: T1, EGFR (form used in the assay not stated); assay: ELISA, NEM conjugate, 10 nM

| Binder | binding relative to P54AR4-83v2 parent [1] [ratio] | binding relative to P54AR4-83v2 parent [2] [ratio] | binding relative to P54AR4-83v2 parent [3] [ratio] |
| --- | --- | --- | --- |
| B1 | 0.88 | 0.82 | 0.34 |
| B2 | 0.07 | 0.23 | 0 |
| B3 | 1.01 | 0.91 | 0.87 |
| B4 | 1.06 | 0.92 | 0.61 |
| B5 | 0.97 | 0.91 | 0.7 |
| B6 | 1.27 | 1.15 | 1.11 |
| B7 | 0.19 | 0.25 | 0.07 |
| B8 | 1.42 | 1.36 | 1.28 |
| B9 | 0.02 | 0.12 | 0.02 |
| B10 | 1.04 | 0.93 | 0.91 |
| B11 | 1.03 | 0.97 | 0.95 |
| B12 | 1.06 | 0.95 | 0.95 |
| B13 | 1.03 | 0.92 | 0.88 |
| B14 | 1.01 | 0.89 | 0.76 |
| B15 | 0.02 | 0.21 | 0 |
| B16 | 1 | 0.9 | 0.35 |
| B17 | 0.99 | 0.9 | 0.84 |
| B18 | 1.01 | 1 | 0.9 |
| B19 | 1.05 | 1.01 | 0.94 |
| B20 | 1.08 | 0.95 | 0.9 |

| Binder | binding relative to P54AR4-83v2 parent [1] [ratio] | binding relative to P54AR4-83v2 parent [2] [ratio] | binding relative to P54AR4-83v2 parent [3] [ratio] |
| --- | --- | --- | --- |
| B21 | 0.73 | 0.61 | 0.64 |
| B22 | 0.04 | 0.24 | 0.07 |
| B23 | 1.09 | 0.97 | 0.98 |
| B24 | 0.02 | 0.29 | 0.19 |
| B25 | 0.97 | 0.96 | 0.56 |
| B26 | 0.99 | 0.93 | 0.9 |
| B27 | 1.02 | 0.91 | 0.91 |
| B28 | 0.95 | 0.86 | 0.88 |
| B29 | 0 | 0.01 | 0 |
| B30 | 0.2 | 0.4 | 0.02 |
| B31 | 0.34 | 0.62 | 0.04 |
| B32 | 1.02 | 0.9 | 0.84 |
| B33 | 1.02 | 0.91 | 0.92 |
| B34 | 1.02 | 0.93 | 0.86 |
| B35 | 1.07 | 0.93 | 0.89 |
| B36 | 0.97 | 0.91 | 0.75 |
| B37 | 1 | 0.9 | 0.9 |
| B38 | 0.96 | 0.92 | 0.77 |
| B39 | 1.04 | 0.92 | 0.68 |
